B1: ACAD9WT (res. 38-621) (enzyme)
chain: AFAKELFLGKIKKKEVFPFPEVSQDELNEINQFLGPVEKFFTEEVDSRKIDQEGKIPDETLEKLKSLGLFGLQVPEEYGGLGFSNTMYSRLGEIISMDGSITVTLAAHQAIGLKGIILAGTEEQKAKYLPKLASGEHIAAFCLTEPASGSDAASIRSRATLSEDKKHYILNGSKVWITNGGLANIFTVFAKTEVVDSDGSVKDKITAFIVERDFGGVTNGKPEDKLGIRGSNTCEVHFENTKIPVENILGEVGDGFKVAMNILNSGRFSMGSVVAGLLKRLIEMTAEYACTRKQFNKRLSEFGLIQEKFALMAQKAYVMESMTYLTAGMLDQPGFPDCSIEAAMVKVFSSEAAWQCVSEALQILGGLGYTRDYPYERILRDTRILLIFEGTNEILRMYIALTGLQHAGRILTTRIHELKQAKVSTVMDTVGRRLRDSLGRTVDLGLTGNHGVVHPSLADSANKFEENTYCFGRTVETLLLRFGKTIMEEQLVLKRVANILINLYGMTAVLSRASRSIRIGLRNHDHEVLLANTFCVEAYLQNLFSLSQLDKYAPENLDEQIKKVSQQILEKRAYICAHPLDRTC

Assays:
dynamic light scattering = target: the molecule itself; assay: dynamic light scattering
ACAD9WT (res. 38-621) = target: B1; assay: mass photometry
mass photometry = target: the molecule itself; assay: mass photometry

Row | Binder | binding result (ACAD9WT (res. 38-621)) | stoichiometry N (mass photometry) | also measured
1 | B1 |  |  | stoichiometry N (dynamic light scattering): 2
2 | ECSIT_(CTER-W324A) (domain or fragment) QDPVELAMFGLRHMEPDLSARVTIYQVPLPKDSTGAADPPQPHIVGIQSPDQQAALARHNPARPVFVEGPFSLWLRNKCVYYHILRADLLPPEEREVEETPEEANLYYPMQLDLEYVRSGWDNYEFDINEVEEGPVFAMCMAGAHDQATMAKWIQGLQETNPTLAQIPVVFRLAGSTRELQTSSAGLEEPPLPEDHQEEDDNLQRQQQGQS | binds |  | 
3 | ECSIT_(CTER-Y327F) (domain or fragment) QDPVELAMFGLRHMEPDLSARVTIYQVPLPKDSTGAADPPQPHIVGIQSPDQQAALARHNPARPVFVEGPFSLWLRNKCVYYHILRADLLPPEEREVEETPEEWNLFYPMQLDLEYVRSGWDNYEFDINEVEEGPVFAMCMAGAHDQATMAKWIQGLQETNPTLAQIPVVFRLAGSTRELQTSSAGLEEPPLPEDHQEEDDNLQRQQQGQS | binds |  | 
4 | ECSIT_(CTER-Y328A) (domain or fragment) QDPVELAMFGLRHMEPDLSARVTIYQVPLPKDSTGAADPPQPHIVGIQSPDQQAALARHNPARPVFVEGPFSLWLRNKCVYYHILRADLLPPEEREVEETPEEWNLYAPMQLDLEYVRSGWDNYEFDINEVEEGPVFAMCMAGAHDQATMAKWIQGLQETNPTLAQIPVVFRLAGSTRELQTSSAGLEEPPLPEDHQEEDDNLQRQQQGQS | binds |  | 
5 | ACAD9_(S191A) (enzyme) AFAKELFLGKIKKKEVFPFPEVSQDELNEINQFLGPVEKFFTEEVDSRKIDQEGKIPDETLEKLKSLGLFGLQVPEEYGGLGFSNTMYSRLGEIISMDGSITVTLAAHQAIGLKGIILAGTEEQKAKYLPKLASGEHIAAFCLTEPASGSDAAAIRSRATLSEDKKHYILNGSKVWITNGGLANIFTVFAKTEVVDSDGSVKDKITAFIVERDFGGVTNGKPEDKLGIRGSNTCEVHFENTKIPVENILGEVGDGFKVAMNILNSGRFSMGSVVAGLLKRLIEMTAEYACTRKQFNKRLSEFGLIQEKFALMAQKAYVMESMTYLTAGMLDQPGFPDCSIEAAMVKVFSSEAAWQCVSEALQILGGLGYTRDYPYERILRDTRILLIFEGTNEILRMYIALTGLQHAGRILTTRIHELKQAKVSTVMDTVGRRLRDSLGRTVDLGLTGNHGVVHPSLADSANKFEENTYCFGRTVETLLLRFGKTIMEEQLVLKRVANILINLYGMTAVLSRASRSIRIGLRNHDHEVLLANTFCVEAYLQNLFSLSQLDKYAPENLDEQIKKVSQQILEKRAYICAHPLDRTC |  | 2 | 
6 | ACAD9_(A184S) (enzyme) AFAKELFLGKIKKKEVFPFPEVSQDELNEINQFLGPVEKFFTEEVDSRKIDQEGKIPDETLEKLKSLGLFGLQVPEEYGGLGFSNTMYSRLGEIISMDGSITVTLAAHQAIGLKGIILAGTEEQKAKYLPKLASGEHIAAFCLTEPSSGSDAASIRSRATLSEDKKHYILNGSKVWITNGGLANIFTVFAKTEVVDSDGSVKDKITAFIVERDFGGVTNGKPEDKLGIRGSNTCEVHFENTKIPVENILGEVGDGFKVAMNILNSGRFSMGSVVAGLLKRLIEMTAEYACTRKQFNKRLSEFGLIQEKFALMAQKAYVMESMTYLTAGMLDQPGFPDCSIEAAMVKVFSSEAAWQCVSEALQILGGLGYTRDYPYERILRDTRILLIFEGTNEILRMYIALTGLQHAGRILTTRIHELKQAKVSTVMDTVGRRLRDSLGRTVDLGLTGNHGVVHPSLADSANKFEENTYCFGRTVETLLLRFGKTIMEEQLVLKRVANILINLYGMTAVLSRASRSIRIGLRNHDHEVLLANTFCVEAYLQNLFSLSQLDKYAPENLDEQIKKVSQQILEKRAYICAHPLDRTC |  |  | binding result (dynamic light scattering): binds
7 | ACAD9_(A184S/SR194TS) (enzyme) AFAKELFLGKIKKKEVFPFPEVSQDELNEINQFLGPVEKFFTEEVDSRKIDQEGKIPDETLEKLKSLGLFGLQVPEEYGGLGFSNTMYSRLGEIISMDGSITVTLAAHQAIGLKGIILAGTEEQKAKYLPKLASGEHIAAFCLTEPSSGSDAASIRTSATLSEDKKHYILNGSKVWITNGGLANIFTVFAKTEVVDSDGSVKDKITAFIVERDFGGVTNGKPEDKLGIRGSNTCEVHFENTKIPVENILGEVGDGFKVAMNILNSGRFSMGSVVAGLLKRLIEMTAEYACTRKQFNKRLSEFGLIQEKFALMAQKAYVMESMTYLTAGMLDQPGFPDCSIEAAMVKVFSSEAAWQCVSEALQILGGLGYTRDYPYERILRDTRILLIFEGTNEILRMYIALTGLQHAGRILTTRIHELKQAKVSTVMDTVGRRLRDSLGRTVDLGLTGNHGVVHPSLADSANKFEENTYCFGRTVETLLLRFGKTIMEEQLVLKRVANILINLYGMTAVLSRASRSIRIGLRNHDHEVLLANTFCVEAYLQNLFSLSQLDKYAPENLDEQIKKVSQQILEKRAYICAHPLDRTC |  | 2 | 
8 | ACAD9_(VLCAD) (enzyme) AFAKELFLGKIKKKEVFPFPEVSQDELNEINQFLGPVEKFFTEEVDSRKIDQEGKIPDETLEKLKSLGLFGLQVPEEYGGLGFSNTMYSRLGEIISMDGSITVTLAAHQAIGLKGIILAGTEEQKAKYLPKLASGEHIAAFCLTEPASGSDAASIRSRATLSEDKKHYILNGSKVWITNGGLANIFTVFAKTEVVDSDGSVKDKITAFIVERDFGGVTNGKPEDKLGIRGSNTCEVHFENTKIPVENILGEVGDGFKVAMNILNSGRFSMGSVVAGLLKRLIEMTAEYACTRKQFNKRLSEFGLIQEKFALMAQKAYVMESMTYLTAGMLDQPGFPDCSIEAAMVKVFSSEAAWQCVSEALQIMGGMGFMRDYPYERILRDTRILLIFEGTNEILRMYIALTGLQHAGRILTTRIHELKQAKVSTVMDTVGRRLRDSLGRTVDLGLTGNHGVVHPSLADSANKFEENTYCFGRTVETLLLRFGKTIMEEQLVLKRVANILINLYGMTAVLSRASRSIRIGLRNHDHEVLLANTFCVEAYLQNLFSLSQLDKYAPENLDEQIKKVSQQILEKRAYICAHPLDRTC |  | 2 | 
9 | VLCADWT (res. 72-655) (enzyme) SFAVGMFKGQLTTDQVFPYPSVLNEEQTQFLKELVEPVSRFFEEVNDPAKNDALEMVEETTWQGLKELGAFGLQVPSELGGVGLCNTQYARLVEIVGMHDLGVGITLGAHQSIGFKGILLFGTKAQKEKYLPKLASGETVAAFCLTEPSSGSDAASIRTSAVPSPCGKYYTLNGSKLWISNGGLADIFTVFAKTPVTDPATGAVKEKITAFVVERGFGGITHGPPEKKMGIKASNTAEVFFDGVRVPSENVLGEVGSGFKVAMHILNNGRFGMAAALAGTMRGIIAKAVDHATNRTQFGEKIHNFGLIQEKLARMVMLQYVTESMAYMVSANMDQGATDFQIEAAISKIFGSEAAWKVTDECIQIMGGMGFMKEPGVERVLRDLRIFRIFEGTNDILRLFVALQGCMDKGKELSGLGSALKNPFGNAGLLLGEAGKQLRRRAGLGSGLSLSGLVHPELSRSGELAVRALEQFATVVEAKLIKHKKGIVNEQFLLQRLADGAIDLYAMVVVLSRASRSLSEGHPTAQHEKMLCDTWCIEAAARIREGMAALQSDPWQQELYRNFKSISKALVERGGVVTSNPLGF |  | 2 | 
10 | VLCAD_(ACAD9) (enzyme) SFAVGMFKGQLTTDQVFPYPSVLNEEQTQFLKELVEPVSRFFEEVNDPAKNDALEMVEETTWQGLKELGAFGLQVPSELGGVGLCNTQYARLVEIVGMHDLGVGITLGAHQSIGFKGILLFGTKAQKEKYLPKLASGETVAAFCLTEPSSGSDAASIRTSAVPSPCGKYYTLNGSKLWISNGGLADIFTVFAKTPVTDPATGAVKEKITAFVVERGFGGITHGPPEKKMGIKASNTAEVFFDGVRVPSENVLGEVGSGFKVAMHILNNGRFGMAAALAGTMRGIIAKAVDHATNRTQFGEKIHNFGLIQEKLARMVMLQYVTESMAYMVSANMDQGATDFQIEAAISKIFGSEAAWKVTDECIQILGGLGYTKEPGVERVLRDLRIFRIFEGTNDILRLFVALQGCMDKGKELSGLGSALKNPFGNAGLLLGEAGKQLRRRAGLGSGLSLSGLVHPELSRSGELAVRALEQFATVVEAKLIKHKKGIVNEQFLLQRLADGAIDLYAMVVVLSRASRSLSEGHPTAQHEKMLCDTWCIEAAARIREGMAALQSDPWQQELYRNFKSISKALVERGGVVTSNPLGF |  | 2 | 

— paper doi:10.1101/2023.02.23.529646 (bioRxiv, 2023)
